US8093037B2, “Engineered microorganisms with enhanced fermentation activity” (Verdezyne, Inc., priority 2009, dated 2012)
Values joined by “and” are separate entries in the source; they are usually repeats but may differ in a detail not shown here. Equal values may be shown once.

Columns and labels:
[1] = Xylose isomerase activity assay (sorbitol dehydrogenase/NADH coupled, Kuyper et al.), soluble whole cell extract; assay type: biochemical, Saccharomyces cerevisiae
xylose isomerase = assay: Xylose isomerase assay in the presence of xylitol (inhibition constant); assay type: biochemical; details: chimeric variants table; inhibitor xylitol
Method: Approximately 20 μg of soluble whole cell extract from each transformed cell line, prepared using Y-PER plus reagent as described above, was incubated in a solution containing about 100 mM Tris, pH 7.5, 10 mM MgCl ? 2, 0.15 mM NADH (Sigma, St. Louis, Mo.), and 2 U Sorbitol Dehydrogenase (SDH) (Roche, Indianapolis, Ind.) at about 30° C. […] A Beckman DU-800 spectrophotometer was utilized with an Enzyme Mechanism software package (Beckman Coulter, Inc, Brea, Calif.), and the change in the A340 was monitored for 2-3 minutes.

[2] = Heterologous xylose isomerase expression in yeast (active yes/no); assay type: cell-based, Saccharomyces cerevisiae; details: xylose isomerase of donor organism expressed in engineered yeast (S. cerevisiae)
[3] = EDA activity assay with saturating amounts of E. coli expressed EDD extract; assay type: biochemical, Saccharomyces cerevisiae
Method: Grow 5 ml LB-Kan preps of BF1055 (BL21/DE3 with pET26b empty vector) and BF1706 (BL21DE3 with pET26b+E. coli EDD).
Grow 50 ml LB-Kan prep of BF1055, 2% (v/v) inoculate.
Grow 50 ml prep of BF1706 using Novagen's Overnight Express (46.45 ml LB-Kan, 1 ml solution 1, 2.5 ml solution 2, 50 μl solution 3, 5 μl of 1M MnCl2, 50 μl of 0.5 M FeCl2), 2% (v/v) inoculate.
Inoculate to OD600 of 0.2.
EDD extractions (adapted from Chemyan et al, Protein Science 16:2368-2377, 2007): • 1) Pellet cells in 50 ml conical tubes, 4° C., 3,000 rpm, 10 mins, discard supernatant. • 2) Resuspend in 2 ml degassed PDGH buffer (20 mM MES pH 6.5, 30 mM NaCl, 5 mM MnCl2, 0.5 mM FeCl2, 10 mM 2-mercaptoethanol, 10 mM cysteine, sparged with nitrogen gas). Move to hungate tube. • 3) Add 0.1% Triton X-100, 10 ng/ml DNase, 10 μg/ml PMSF, 10 μg/ml TAME (Nα-(p-toluene sulfonyl)-L-arginine methyl ester), 100 μg/ml lysozyme. • 4) Sparge hungate tube with nitrogen gas, cap and seal. Incubate 2 hours at 37° C., swirl occasionally. • 5) Clarify by centrifugation in 2-ml tube, 4° C., 10 mins, 14,000 rpm. Keep supernatant. • 6) Treat with 150 mM pyruvate and 10 mM sodium cyanoborohydride (work in hood) to inactivate aldolase activity. Incubate 30 mins at room temperature. • 7) During incubation, pre-equilibrate PD-10 column from GE • a. Remove top cap, pour off storage buffer. • b. Cut off bottom tip, fit in 50 ml conical with adapter. • c. Pour 5 ml of 20 mM MES buffer, pH 6.5 (total of 5 times). Discard flow-through. • 8) Run sample through column, then add MES buffer to a total of 2.5 ml volume added. Discard flow-through. • 9) Run 3.5 ml 20 mM MES pH 6.5 buffer to elute protein. Discard column in appropriate waste receptacle. • 10) Perform Bradford assay (1:10 or 1:20 dilution). […]
Each reaction contains 50 mM Tris-HCl, pH 7, 10 mM MgCl2, 0.15 mM NADH, 15 μg LDH, saturating amounts of EDD determined empirically (usually ˜100 μg), 1-50 μg EDA (depending on level of activity), and 1 mM 6-phosphogluconate. Reactions are started by the addition of 6-phosphogluconate and monitored for 5 mins at 30° C.

C5 strain = assay: Xylose fermentation of C5 strain transformed with xylose isomerase constructs; assay type: cell-based, Saccharomyces cerevisiae
Description: The engineered strain was designed to include the following genetic modifications: the native Pho13 gene (alkaline phosphatase specific for p-nitrophenyl phosphate) was disrupted by inserting a construct containing the native TLK1 gene (Transketolase-1); the native aldose reductase gene (Gre3) was disrupted by inserting a construct containing the native high-affinity glucose transporter-7 gene (HXT7); the native glucose-repressible alcohol dehydrogenase II gene (adh2) was disrupted by inserting a construct containing the native xylulokinase gene (XYLK); and the native orotidine-5′ phosphate decarboxylase gene (ura3) was disrupted by inserting a construct containing the native transaldolase 1 gene (TAL1). The resulting strain had the following genotype: pho13::TKL1, gre3::HXT7, adh-2::XYLK, ura3::TAL1.
The C5 strain was transformed using standard protocols with either p426GPD (as a control) or the chimeric variants XI-R, XI-Rp5, XI-Rp10, or XI-Rp15. The transformed cells were grown on SC-glucose minus uracil initially and then passaged onto SC-xylose minus uracil. Cultures of each of the above constructs were made in SC-xylose minus uracil—and grown for one week. The cultures were grown aerobically at 30° C. with 250 rpm agitation, 1 vvm sparge of process air, 21% O2. The pH was controlled at about 5.0 with 1N NaOH. […] At 24 hours elapsed fermentation time the fermentation was switched to anaerobic conditions. […] Oxygen was purged with 100% N2 sparge at 1 vvm until percent O2 was below 1%. Aeration was then set at 0.25 vvm 100% N2.
The final sample also measured biomass by dry cell weight.

[4] = test system: Saccharomyces cerevisiae (strain BF903); assay: Industrial yeast strain evaluation: aerobic growth and xylose consumption in YP-xylose; assay type: cell-based; details: 30° C., 7 days
Method: A commercially available industrial diploid strain of Saccharomyces cerevisiae (strain BF903; “Stillspirits” triple distilled yeast, Brewcraft, Albany, New Zealand; available at Hydrobrew, Oceanside, Calif.) was obtained and was made competent for transformation using known yeast cell transformation procedures. […] Transformed yeast containing each construct were grown overnight aerobically in a 15 ml culture tube on YPD media containing 2% glucose. After about 24 hours, about 25 ml of YP media containing 2% glucose and 100 μg/ml G418 was seeded with the cells at an initial OD600 of 0.5 in a 250 ml Erlenmeyer flask and grown aerobically at 30° C. The cultures were then passaged once every 7 days into fresh media, also at an initial OD600 of 0.5.
Measurements were taken of the cell optical density (OD600) to assess cell density and plated onto YPD with 100 μg/ml G418 to ensure that the plasmid was stable. […] The strains were then grown overnight in YPD (with 100 μg/ml G418) and used to inoculate about 50 ml YP-xylose (with 100 μg/ml G418) into disposable 250 ml Erlenmeyer flasks with vented caps at an initial OD600 of about 1. The cultures were allowed to grow aerobically at 30° C. at 200 rpm for 7 days.

[5] = test system: Saccharomyces cerevisiae (strain BF903); assay: Industrial yeast strain evaluation: ethanol production on xylose in sealed serum bottles; assay type: cell-based; details: strain BF903, YP plus xylose, sealed serum bottle
Method: The serum bottles were sealed with a butyl rubber stopper to prevent air exchange. As a result, the cultures became anaerobic once the available oxygen in the serum bottle was utilized. In general, anaerobiosis (e.g., the onset of anaerobic conditions) occurred a few hours after the culture was inoculated. Xylose utilization, ethanol production and cell growth were measured every twenty four hours.

## XI-P: xylose isomerase from Piromyces strain E2, SEQ ID NO: 35
[1]; chimeric variants table, xylose 40-500 mM, soluble whole cell extract
  Specific Activity: 2.02 µmol/min/mg
Xylose isomerase
  Ki: 4.79 mM
[2]
  Active? (yes/no): Yes

B1: EDA-E. coli: 2-keto-3-deoxygluconate-6-phosphate aldolase (eda) of E. coli (protein, UniProt P0A955 1-213, looked up)
KHG/KDPG aldolase: MKNWKTSAESILTTGPVVPVIVVKKLEHAVPMAKALVAGGVRVLEVTLRTECAVDAIRAIAKEVPEAIVGAGTVLNPQQLAEVTEAGAQFAISPGLTEPLLKAATEGTIPLIPGISTVSELMLGMDYGLKEFKFFPAEANGGVKALQAIAGPFSQVRFCPTGGISPANYRDYLALKSVLCIGGSWLVPADALEAGDYDRITKLAREAVEGAKL
[3]; 100 μg EDD and 25 μg EDA cell lysate (5 μg of E. coli EDA)
  EDA activity compared to the other EDAs, repeated experiment (FIG. 24): most active of those EDA's tested
[3]; first experiment
  EDA activity compared to the other EDAs: higher activity as compared to the other EDA activities
[3]; first experiment, E. coli slope outside linear range
  EDA activity relative to the EDA from P. aeruginosa: approximately 16 fold

B2: Burkholderia xenovorans: xylose isomerase of this donor organism, expressed in S. cerevisiae (protein, UniProt Q13RB8 1-440, looked up)
Xylose isomerase: MSYFEHIPEIRYEGPQSDNPLAYRHYDKSKKVLGKTLEEHLRIAVCYWHTFVWPGVDIFGQGTFRRPWQQAGDAMERARQKADSAFEFFSKLGTPYYTFHDTDVSPEGSSLKEYSENFLRITDYLARKQEDTGIKLLWGTANLFSHPRYAAGAATSPDPEVFAFAATQVRHALDATQRLGGDNYVLWGGREGYDTLLNTDLMRERDQLARFLHMVVDHAHKIGFKGSLLIEPKPQEPTKHQYDYDVATVHGFLLQHGLEKEIRVNIEANHATLAGHSFHHEIATAYALGIFGSVDANRGDPQNGWDTDQFPNSVEELTLAFYEILKHGGFTTGGMNFDSKVRRQSVDPEDLFYGHIGAIDNLALAVERAAVLIENDRLDQFKRQRYAGWDADFGRKILSGDYSLSTLATDALARGLNPQHASGHQELMENIVNQAIYSGR
[2]
  Active? (yes/no): No

B3: XI-R: native xylose isomerase of Ruminococcus flavefaciens strain 17, SEQ ID NO: 31 (protein, listed as Ruminococcus flavefaciens)
chain: MEFFSNIGKIQYQGPKSTDPLSFKYYNPEEVINGKTMREHLKFALSWWHTMGGDGTDMFGCGTTDKTWGQSDPAARAKAKVDAAFEIMDKLSIDYYCFHDRDLSPEYGSLKATNDQLDIVTDYIKEKQGDKFKCLWGTAKCFDHPRFMHGAGTSPSADVFAFSAAQIKKALESTVKLGGNGYVFWGGREGYETLLNTNMGLELDNMARLMKMAVEYGRSIGFKGDFYIEPKPKEPTKHQYDFDTATVLGFLRKYGLDKDFKMNIEANHATLAQHTFQHELRVARDNGVFGSIDANQGDVLLGWDTDQFPTNIYDTTMCMYEVIKAGGFTNGGLNFDAKARRGSFTPEDIFYSYIAGMDAFALGFRAALKLIEDGRIDKFVADRYASWNTGIGADIIAGKADFASLEKYALEKGEVTASLSSGRQEMLESIVNNVLFSL
[1]; xylose isomerase expressed in S. cerevisiae, total soluble crude extract, xylose concentrations between 40 and 500 nM (so in the source), Michaelis-Menten plot
  Specific Activity: 0.9605 µmol/min/mg
C5 strain; final sample at 372 hours
  Dry Cell Wt: 2.20 g/L and 2.03 g/L
  Ethanol: 15.65 g/L and 15.5 g/L
  Glucose: 0 g/L
  Xylose: 3.14 g/L and 3.85 g/L
C5 strain; final sample at 372 hours after commencing fermentation
  OD600 nm: 7.72 and 7.32
[2]
  Active? (yes/no): Yes
[4]
  xylose consumption: more efficient at consuming xylose
[5]
  cell growth (cell density): grew to a higher cell density
  ethanol production: produced more ethanol

B4: R. flavefaciens, FD-1 XI: xylose isomerase of Ruminococcus FD1, ZP_06143883.1, SEQ ID NO: 110 (protein, listed as Ruminococcus flavefaciens)
chain: MEFFKNISKIPYEGKDSTNPLAFKYYNPDEVIDGKKMRDIMKFALSWWHTMGGDGTDMFGCGTADKTWGENDPAARAKAKVDAAFEIMQKLSIDYFCFHDRDLSPEYGSLKDTNAQLDIVTDYIKAKQAETGLKCLWGTAKCFDHPRFMHGAGTSPSADVFAFSAAQIKKALESTVKLGGTGYVFWGGREGYETLLNTNMGLELDNMARLMKMAVEYGRSIGFKGDFYIEPKPKEPTKHQYDFDTATVLGFLRKYGLDKDFKMNIEANHATLAQHTFQHELCVARTNGAFGSIDANQGDPLLGWDTDQFPTNIYDTTMCMYEVIKAGGFTNGGLNFDAKARRGSFTPEDIFYSYIAGMDAFALGYKAASKLIADGRIDSFISDRYASWSEGIGLDIISGKADMAALEKYALEKGEVTDSISSGRQELLESIVNNVIFNL
[1]; 500 mM xylose, 100 μg total soluble crude extract
  slope of the activity at saturating xylose (FIG. 25): highest activity of the candidates tested
[1]; xylose between 40 and 500 nM
  specific activity relative to the native XI control: greater than 2 fold

B5: Staphylococcus xylosus: xylose isomerase of this donor organism, expressed in S. cerevisiae (protein, UniProt P27157 1-439, looked up)
Xylose isomerase: MSYFDINKVNYEGPKSNNAFSFKYYNPEEKLGNHSMSELLRFSVAYWHTFTADLSDPFGVGVAERDWDSLDEMEKAKARVEAIFEFMEKTRIDYFCFHDVDISPEGASLKESNENLDIIVELIKEKMDQTGKKLLWNTTNNFTHERFVHGAATSSNAEVFAYAAAKVKKSLEIAKKLGSENFVFWGGREGYESLLNTNMKLELDNLATFFKMAKSYADEIGYTGQFLIEPKPKEPTTHQYDTDVATAHAFLQKYDLDKDFKFNIEANHATLAGHTFQHELRYARDNNMLGSVDANQGHPLLGWDTDESTDVYDTTLAMYEILKNGGLAPGGLNFDAKPRRTSFKQEDLILTHIAGMDTFALGLRVAYKMIEDNFFENIMDEKYKSFNEGIGKKIVEGETSLKELEDYAFNINTINNTSDHLEVIKSQINQYILNINNKD
[2]
  Active? (yes/no): No

B6: Bacillus licheniformis: xylose isomerase of this donor organism, expressed in S. cerevisiae (protein, UniProt P77832 1-448, looked up)
Xylose isomerase: MFFRNIGMIEYEGADSENPYAFKYYNPDEFVGGKTMKEHLRFAVAYWHTFDADGKDPFGDGTMFRAWNRLTHPLDKAKARAEAAFEFFEKLGVPYFCFHDVDIVDEGATLRETFTYLDQMSSFLKEMMETSHVQLLWNTANMFTHPRYVHGAATSCNADVYAYAAAKVKKGLDIAKELGAENYVFWGGREGYETLLNTDMKLELENLSSFYRMAVEYAREIGFDGQFLIEPKPKEPTKHQYDFDAATTIAFLETYGLKDHFKLNLEANHATLAGHTFEHELRVAALHDMLGSIDANQGDLLLGWDTDEFPTDLYSAVLAMYEILKAGGFKTGGINFDAKVRRPSFADEDLFHAHIAGMDTYAVGLKVASRLLEDKALDQVIEERYESYTKGIGLEIKEGRTDLKKLAAYALENDHIENQSGRQERLKATVNRYLLNALREAPAGKETH
[2]
  Active? (yes/no): No
